Patent US20040001839A1 (published 2004)
Changes are numbered by the printed parent chain. No end group written: not given here. *: point of attachment. sulfate = O=S(=O)(O)*

B1: P-3-S (peptide)
peptide: GDEGDTDLY(sulfate)DY(sulfate)Y(sulfate)P
notes: also called residues 268-280 of GPIbα, sulfated
B2: P-2-S (peptide)
peptide: TDLY(sulfate)DY(sulfate)Y(sulfate)PEEDTE
notes: also called residues 273-285 of GPIbα, sulfated
B3: CONY1 (scFv)
scFv: EVQLVESGGGVVRPGGSLRLSCAASGFTFDDYGMSWVRQAPGKGLEWVSGINWNGGSTGYADSVKGRFTISRDNAKNSLYLQMNSLRAEDTAVYYCARMRAPVIWGQGTLVTVSRGGGGSGGGGSGGGGSSELTQDPAVSVALGQTVRITCQGDSLRSYYASWYQQKPGQAPVLVIYGKNNRPSGIPDRFSGSSSGNTASLTITGAQAEDEADYYCNSRDSSGNHVVFGGGTKLTVLGAAAKAK
notes: also called Y1-kak; Y1 scFv monomer
B4: Y1 scFv (scFv)
scFv: EVQLVESGGGVVRPGGSLRLSCAASGFTFDDYGMSWVRQAPGKGLEWVSGINWNGGSTGYADSVKGRFTISRDNAKNSLYLQMNSLRAEDTAVYYCARMRAPVIWGQGTLVTVSRGGGGSGGGGSGGGGSSELTQDPAVSVALGQTVRITCQGDSLRSYYASWYQQKPGQAPVLVIYGKNNRPSGIPDRFSGSSSGNTASLTITGAQAEDEADYYCNSRDSSGNHVVFGGGTKLTVLGAAAEQKLISEEDLNGAA
notes: Fully human scFv from the Nissim I phage library; Used biotin-labelled in most Western blots; also called scFv Y1; scFv-Y1
B5: Y17 scFv (scFv)
scFv: B4 scFv with M99L, R100T, A101H, V103Y, I104F
notes: Human scFv selected on platelets in the same way as Y1; also called biotin labeled-Y17
B6: Y1-cys-kak (cysteine dimer) (other)
scFv 1: MEVQLVESGGGVVRPGGSLRLSCAASGFTFDDYGMSWVRQAPGKGLEWVSGINWNGGSTGYADSVKGRFTISRDNAKNSLYLQMNSLRAEDTAVYYCARMRAPVIWGQGTLVTVSRGGGGSGGGGSGGGGSSELTQDPAVSVALGQTVRITCQGDSLRSYYASWYQQKPGQAPVLVIYGKNNRPSGIPDRFSGSSSGNTASLTITGAQAEDEADYYCNSRDSSGNHVVFGGGTKLTVLGGGGCKAK
scFv 2: B6 scFv 1
modifications: Interchain disulfide between Cys 243 of chain 1 and Cys 243 of chain 2; in the FACS of paragraph 474 the dimer also carried FITC.
notes: also called Y1-cys-kak scFv dimer; S-S Y1 dimer
B7: F-YY (peptide)
peptide: VRPEHPAETEYESLYPEDDL
notes: also called Fibrinogen-γ-prime chain peptide, non-sulfated
B8: Y1-IgG (antibody, V domains shown)
VH: EVQLVESGGGVVRPGGSLRLSCAASGFTFDDYGMSWVRQAPGKGLEWVSGINWNGGSTGYADSVKGRFTISRDNAKNSLYLQMNSLRAEDTAVYYCARMRAPVIWGQGTLVTVSR
VL: SELTQDPAVSVALGQTVRITCQGDSLRSYYASWYQQKPGQAPVLVIYGKNNRPSGIPDRFSGSSSGNTASLTITGAQAEDEADYYCNSRDSSGNHVVFGGGTKLTVL
B9: F-Y*Y* (peptide)
peptide: VRPEHPAETEY(sulfate)ESLY(sulfate)PEDDL
notes: also called Fibrinogen-γ-prime chain peptide, sulfated

Assays:
[1] = biological target: B4; test: competition ELISA: Y1 0.25 µg/well preincubated with peptide at 0.5 µM, residual binding to glycocalicin
[2] = biological target: B4; test: competition ELISA: Y1 0.25 µg/well preincubated with peptide at 2.5 µM, residual binding to glycocalicin
[3] = biological target: B4; test: competitive FACS: Y1-scFv 1 µg preincubated with peptide at 2.5 µM, residual binding to washed platelets
Description: (§1) In addition, FACS analysis using washed platelets was carried out. […] A polystyrene microtiter maxisorb plate was coated with (a) purified glycocalicin or (b) washed platelets. […] The plate was then incubated with rabbit anti-scFv followed by addition of anti rabbit-HRP (horse radish peroxidase) and HRP substrate. […] The optical density was measured at A₄₀₅. Each sample was assayed in duplicate, and the average was calculated.

[4] = biological target: B4; test: competition ELISA: Y1 0.25 µg/well preincubated with peptide at 25 µM, residual binding to glycocalicin
[5] = biological target: B4; test: competitive FACS: Y1-scFv 1 µg preincubated with peptide at 200 µM, residual binding to washed platelets
Description: as §1

[6] = biological target: T1, PSGL-1 on KG-1 cells (human, UniProt Q14242 42-412, sulfated tyrosine residues at the N-terminal site); test: second radio receptor binding assay on KG-1 cells, labeled tracer 100 ng/tube
T1 construct: whole, on cells; results on KG-1 cells, lysates and membrane fractions are written against this molecule; also called CD162; P-Selectin Glycoprotein Ligand-1
T1 sequence (looked up): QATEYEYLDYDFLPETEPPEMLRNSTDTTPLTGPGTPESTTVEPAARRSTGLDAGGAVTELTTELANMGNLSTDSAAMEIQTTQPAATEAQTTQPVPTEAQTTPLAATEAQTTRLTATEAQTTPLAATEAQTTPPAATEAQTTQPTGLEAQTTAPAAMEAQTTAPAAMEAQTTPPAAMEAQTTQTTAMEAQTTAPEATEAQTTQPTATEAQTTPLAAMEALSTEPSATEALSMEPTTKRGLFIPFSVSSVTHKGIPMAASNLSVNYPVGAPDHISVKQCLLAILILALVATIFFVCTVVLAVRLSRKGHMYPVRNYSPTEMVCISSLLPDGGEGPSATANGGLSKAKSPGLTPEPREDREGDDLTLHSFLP
Description: (§2) The assay tubes contained 5×10⁶ KG-1 cells per 0.2 ml and a labeled tracer with varying amounts of unlabeled competitor, in PBS+0.1% BSA, pH 7.4. After one hour incubation with agitation at 4° C., the cells were thoroughly washed with cold buffer and taken for radioactivity counting.

[7] = biological target: T1, PSGL-1 on KG-1 cells; test: Western blot of RP-HPLC KG-1 membrane fraction after O-Sialo glycoprotein endopeptidase, 30' at 37° C.
[8] = biological target: T2, Lumican (human, UniProt P51884 19-338, contains sulfated tyrosine residues); test: Western blot of human plasma proteins
T2 construct: The ~80 kDa band was identified as CC4 and lumican together; also called human lumican; H P-ligand 2
T2 sequence (looked up): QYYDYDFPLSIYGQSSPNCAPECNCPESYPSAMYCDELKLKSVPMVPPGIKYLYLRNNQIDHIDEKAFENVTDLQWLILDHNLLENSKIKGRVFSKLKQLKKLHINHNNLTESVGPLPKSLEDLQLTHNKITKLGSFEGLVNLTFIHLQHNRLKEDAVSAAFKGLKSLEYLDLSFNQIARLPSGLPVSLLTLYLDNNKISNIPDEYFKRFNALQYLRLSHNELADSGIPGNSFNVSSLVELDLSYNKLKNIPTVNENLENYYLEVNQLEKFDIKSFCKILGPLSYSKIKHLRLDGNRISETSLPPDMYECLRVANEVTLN

[9] = biological target: T3, GPIbα small N-terminal 42 kDa fragment (His1-Leu275) (human, UniProt P07359 17-291); test: Western blot of cathepsin G digested glycocalicin
T3 construct: also called smaller N-terminal fragment (cathepsin G)
Excerpt: Glycocalicin and glycocalicin fragments generated by cathepsin G digestion were separated on SDS-polyacrylamide gels and transferred to nitrocellulose.

[10] = biological target: T1, PSGL-1 on KG-1 cells; test: FACS on KG-1 cells
[11] = biological target: T1, PSGL-1 on KG-1 cells; test: radio receptor assay on KG-1 cells, dimer as competitor
[12] = biological target: T1, PSGL-1 on KG-1 cells; test: radio receptor binding assay on KG-1 cells, tracer 125I-Y1-IgG 2 ng/tube
Description: as §2

[13] = biological target: T1, PSGL-1 on KG-1 cells; test: FACS on KG-1 cells, FITC-labeled
[14] = biological target: T1, PSGL-1 on KG-1 cells; test: radioreceptor assay, ELISA or FACS; KG-1 cells
[15] = biological target: B4; test: competition ELISA: peptide (1, 10, 100 µM) preincubated with scFv Y1, binding to immobilized glycocalicin

T3 sequence (P07359 17-291 limits assumed): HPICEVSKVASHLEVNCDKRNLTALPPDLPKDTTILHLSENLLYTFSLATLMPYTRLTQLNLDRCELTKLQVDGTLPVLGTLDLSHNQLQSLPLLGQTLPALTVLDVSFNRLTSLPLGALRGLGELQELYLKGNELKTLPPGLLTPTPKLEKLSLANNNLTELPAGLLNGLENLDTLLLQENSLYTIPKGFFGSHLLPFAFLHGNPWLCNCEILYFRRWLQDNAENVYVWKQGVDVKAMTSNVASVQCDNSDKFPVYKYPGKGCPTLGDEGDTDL

## REEGRQHFFLLEGRSSYS (also called negative control peptide) [EGR]
[1]
  Residual Binding of Y1 (% of baseline): 121%
[2]
  Residual Binding of Y1 (% of baseline): 100%
[3]
  Residual Binding of Y1 (% of baseline) (Geo Mean): 96%
[4]
  Residual Binding of Y1 (% of baseline): 89%
[5]
  Residual Binding of Y1 (% of baseline) (Geo Mean): 119%

## B1
[1]
  Residual Binding of Y1 (% of baseline): 80%
[2]
  Residual Binding of Y1 (% of baseline): 67%
[3]
  Residual Binding of Y1 (% of baseline) (Geo Mean): 82%
[4]
  Residual Binding of Y1 (% of baseline): 21%
[5]
  Residual Binding of Y1 (% of baseline) (Geo Mean): 26%

## B2
[1]
  Residual Binding of Y1 (% of baseline): 78%
[2]
  Residual Binding of Y1 (% of baseline): 52%
[3]
  Residual Binding of Y1 (% of baseline) (Geo Mean): 61%
[4]
  Residual Binding of Y1 (% of baseline): 15%
[5]
  Residual Binding of Y1 (% of baseline) (Geo Mean): 7%

## B3
[6]
  Kd: ~1000 nM

## B4
[7]
  binding result: binds
[8]
  binding result: binds

## B5
[9]
  binding result: no binding
[10]
  binding result: binds

## B6
[6]
  Kd: ~50 nM
  fold higher affinity than CONY1: 20 fold
[11]
  fold more efficient than the monomer: 30 fold
[12]
  Kd: ~40 nM
  fold higher affinity than CONY1: 30 fold
  fold lower affinity than the full Y1 antibody: 2 fold
[13]
  fold less material than the monomer: 10 fold
[14]
  fold higher binding than the Y1 scFv monomer: ≥ 20 fold

## B7
[15]
  binding result: no binding (tested: 100 µM)

## B8
[12]
  Kd: ~20 nM

## B9
[15]
  binding result: no binding (tested: 100 µM)
